From patent US20260193333A1, “METHODS OF INHIBITING FIBRIL GROWTH” (University of Tennessee Research Foundation, priority 2023, published 2026) come the findings set out here.

One series deals with rVλ6WIL fibrils. In words: rVλ6WIL (WIL) fibril extension assay with biotinylated rVλ6WIL monomer. It counts as biochemical. The settings on record: for % Change (at 2 μM) in rVλ6WIL fibril extension: at 2 μM sample, 20 nM Biotin-WIL, blocking agent BSA, compared to control sample. On the procedure: A WIL fibril extension assay was developed for analyzing in vitro amyloid fibril formation using biotinylated WIL monomers.
First, a high binding 96-well ELISA plate was coated with 0.83 μM sonicated rVλ6WIL synthetic fibrils ([…]). The fibrils were then dried in a 37° C. oven. Subsequently, the plate was washed twice with wash buffer (PBS+0.05% tween 20). The plate was then blocked with […] of 1% BSA in PBS for 1 hour at 37° C. The blocking buffer was then removed and the plate was washed twice with wash buffer. For positive control wells, 100 mL of 20 nM biotinylated rVλ6WIL monomer (biotinylated with EZ-link Sulfo-NHS-biotin (ThermoFisher Scientific) following their protocol) in 1% BSA+0.05% tween 20 in PBS (BSAT) was added per well. For test wells, 100 mL of a mix of 20 nM biotinylated rVλ6WIL monomer plus an amyloid-reactive peptide, an amyloid-reactive antibody, or an amyloid-reactive antibody-peptide fusion protein (2, 0.5, 0.05, 0.01, 0.005 and 0.001 […]) in BSAT was added per well. Background control wells (containing no fibrils) contained […] of 20 nM biotinylated rVλ6WIL monomer in BSAT added to them. The microplate was then incubated for 1 hour at 37° C. The plate was then washed twice with wash buffer. 100 mL of a 1:1000 dilution of europium-labeled streptavidin (Perkin Elmer) in BSAT was then added into each well and incubated for 1 hour at 37° C. Next, the plate was washed 3× with wash buffer. To quantify amyloid fibril formation, […] of enhancement solution (Perkin Elmer) was added to each well and time-resolved fluorescence emission was measured in each well.
The methods of Example 1 were carried out in the presence of the amyloid reactive peptide p5R, an amyloid-reactive antibody-peptide fusion protein, an amyloid-reactive humanized antibody, or a control.
Assay conditions included the following: 20 nM biotinylated WIL monomer, 1 hour incubation using BSA as a blocking agent, and 50 μL/well of 10 μg/mL fibrils (0.83 μg).

Series [1] addresses rVλ6WIL synthetic fibrils. In words: fibril extension assay: 20 nM biotin-WIL monomer binding to plate-coated rVλ6WIL fibrils in the presence of 2 µM sample, BSA block, europium-streptavidin.

Take “Amyloid reactive peptide p5R: amyloid-reactive peptide p5R, SEQ ID NO: 2, RAQRAQARQARQAQRAQRAQARQARQ (RAQRAQARQARQAQRAQRAQARQARQ)”: the “% Change (at 2 μM) in rVλ6WIL fibril extension” value with rVλ6WIL fibrils was “+12%”. Besides, the “rVλ6WIL fibril extension in the presence of the peptide” value in the series on rVλ6WIL fibrils (concentrations between 0.001 μM to 2.0 μM, FIGS. 2A, 2B) is recorded as “insufficient to inhibit rVλ6WIL fibril extension”.

Turning to RAQRAQARQARQAQRAQRAQARQARQ [amyloid-reactive peptide p5R], the % Change (at 2 µM) of rVλ6WIL fibril extension against control in series [1] was 12%.

B1: amyloid-reactive humanized antibody (VH SEQ ID NO:55 / VL SEQ ID NO:36) (antibody, V domains shown)
VH: QVQLQESGPGLVKPSETLSLTCTVSGFSLSSYGVSWIRQPPGKGLEWLGVIWGEGSTNYHPNLMSRVTISVDTSKSQVLFKLSSVTAADTAVYYCATLDYWGQGTSVTVSS
VL: DVVMTQSPLSLPVTLGQPASISCRSSQSLVHRSGNTYLHWFQQRPGQSPRLLIYKVSNRFSGVPDRFSGSGSGTDFTLKISRVEAEDVGVYFCFQTTYVPNTFGGGTKLEIK
As to B1, in series [1], the % Change (at 2 µM) of rVλ6WIL fibril extension against control is -89%. In addition, the “% Change (at 2 μM) in rVλ6WIL fibril extension” value in the series with rVλ6WIL fibrils is −89%. Moreover, the “extension of rVλ6WIL fibrils in the presence of the antibody” value in the series with rVλ6WIL fibrils (beginning at a concentration of 0.01 μM, FIGS. 4A, 4B) is reported as “significantly attenuated”. In addition, in the series with rVλ6WIL fibrils (tested 0.001 to 2 μM), the “concentration at which significant attenuation of rVλ6WIL fibril extension begins” value amounted to 10 nM and the “concentration of maximum level of rVλ6WIL fibril extension inhibition” value was found to be 2000 nM.
